Here are results for two substances from publication PMC6465384.

The target of the assay is SpyDock (SpyCatcher2.1 S49C E77A), carbamidomethylated. The assay is described as follows: ITC; 20 μM carbamidomethylated SpyDock in the cell, 20 injections of 210 μM SpyTag-MBP or SpyTag002-MBP from the syringe; 25 °C; 20 mM HEPES pH 7.0, 150 mM NaCl; 1:1 binding model.

Consider SpyTag002-MBP, for which the Kd was determined as 73 nM and the stoichiometry N was 1.
For SpyTag-MBP, in that order: 750 nM and 1.
